Data reported in patent US20230002466A1 (ELPIS BIOPHARMACEUTICALS, published 2023).
Changes are numbered by the printed parent chain. Read-outs that look alike come from different tables or passages of the source.

Assays:
human IL2Rβ [1] = biological target: T1, human IL2Rβ (human, UniProt P14784 27-239); assay: SPR, single concentration
T1 construct: also called IL2β; CD122
T1 sequence (looked up): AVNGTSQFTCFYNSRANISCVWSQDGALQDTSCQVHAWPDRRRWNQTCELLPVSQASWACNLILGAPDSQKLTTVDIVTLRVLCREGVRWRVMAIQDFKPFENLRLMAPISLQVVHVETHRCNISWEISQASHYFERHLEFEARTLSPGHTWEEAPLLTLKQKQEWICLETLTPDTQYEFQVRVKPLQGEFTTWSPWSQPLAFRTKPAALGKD

[2] = biological target: T2, human IL2Rβ Fc fusion protein (human, UniProt P14784 27-239); assay: ELISA, Fc-tagged receptor coated, anti-HisTag-HRP
T2 construct: also called Recombinant Fc-tagged human IL2Rβ; not shown: Fc
T2 sequence (looked up): T1 sequence (looked up)
Protocol: (§1) Recombinant Fc-tagged human IL2Rα and IL2Rβ were added in 25 uL of 1×PBS to wells of 384-well plate and incubated overnight at 4° C. to coat the plates. Plates were washed three times with 0.05% Tween20/1×PBS. Plates were blocked with 100 uL of SuperBlock for 1 hr at RT and then washed 3 times with 0.05% Tween20/1×PBS. IL2 mutants were diluted in 0.05% Tween 20/1×PBS from 1000 nM to 0 nM and added to plates for 2 hrs at room temperature. Plates were then washed 6 times with 0.05% Tween20/1×PBS. Anti-HisTag-HRP was diluted 1:5000 in 0.05% Tween20/1×PBS and added to plates for 1 hr at RT. Plates were then washed 6 times with 0.05% Tween 20/1×PBS, and TMB was added to develop blue color. Reactions were stopped with 2N […] and light absorbance at 450 nm was read on a BioTek plate reader.

[3] = biological target: T3, recombinant His-tagged human IL2Rβ (human, UniProt P14784 27-239); assay: SPR (Biacore T200): Fc fusion captured on anti-hFc chip, IL2Rβ-HIS injected in 2-fold dilutions from 100 nM
T3 construct: also called hIL2Rβ; not shown: His tag
T3 sequence (looked up): T1 sequence (looked up)
Protocol: Binding kinetics of monovalent IL2Rβ Fc fusion proteins have been analyzed by SPR technology with Biacore T200. Briefly, anti-hFc antibody was immobilized on flow cell 1 and 2. For each cycle, 1 ug/mL of IL2 Fc fusion protein was captured for 60 seconds at flow rate of 10 ul/min on flow cell 2 in 1×HBSP buffer on anti-hFc immobilized chip. 100 nM IL2Rα-HIS tagged or IL2Rβ-HIS tagged was 2-fold serial diluted and injected onto both reference flow cell 1 and IL2 Fc fusion protein were captured at flow cell 2 for 150 seconds at flow rate of 30 ul/mins. 300 seconds wash was applied after the last injection. The assay was set up with 8 serial diluted concentration points in 96 well format. The kinetics data was analyzed with Biacore T200 evaluation software 3.0. The specific binding response unit was derived from subtraction of binding to reference flow cell 1 from target flow cell 2 (FIGS. 39A-39D).

[4] = biological target: T4, human IL2Rα Fc fusion protein (human, UniProt P01589 22-213, limits assumed); assay: ELISA, receptor-Fc coated, anti-Flag HRP
T4 construct: also called Recombinant Fc-tagged human IL2Rα; not shown: Fc
T4 sequence (looked up): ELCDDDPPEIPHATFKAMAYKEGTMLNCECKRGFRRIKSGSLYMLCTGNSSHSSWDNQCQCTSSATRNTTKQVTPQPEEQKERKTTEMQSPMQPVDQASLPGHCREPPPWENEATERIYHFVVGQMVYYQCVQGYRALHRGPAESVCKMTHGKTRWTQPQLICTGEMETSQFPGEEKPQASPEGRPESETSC
Summary of the method: (§2)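 Plates coated overnight at 4 C with IL2Rα or IL2Rβ Fc fusion at 2 ug/mL, then blocked. Flag-tagged IL2 mutant dilutions were added in duplicate, and binding was detected with anti-Flag HRP (1:5000) and TMB for 5 min. EC50 was fitted from OD450.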

[5] = biological target: T2, human IL2Rβ Fc fusion protein; assay: ELISA, receptor-Fc coated, anti-Flag HRP
Summary of the method: as §2

human IL2Rβ [6] = biological target: T1, human IL2Rβ; assay: SPR, IL2Rβ captured on Protein A chip, steady state affinity fitting
Protocol: (§3) The assay was run with Biacore T200 control software version 2.0. For each cycle, 1 ug/mL of human IL2Rβ was captured for 60 seconds at flow rate of 10 uL/min on flow cell 2 in 1×HBSP buffer on Protein A sensor chip. 100 nM of HIS and Flag tag purified each IL2 mutant was 2-fold serial diluted and injected onto both reference flow cell 1 and IL2Rβ captured flow cell 2 for 150 seconds at flow rate of 30 uL/min followed by washing for 300 seconds. The flow cells were then regenerated with Glycine pH2 for 60 seconds at a flow rate of 30 uL/min. The assay was set up with 8 serial diluted concentration points in 96-well format. The kinetics data was analyzed with Biacore T200 evaluation software 3.0. The specific binding response unit was derived from subtraction of binding to reference flow cell 1 from target flow cell 2 (FIGS. 16A-16F, Table 10).

[7] = biological target: T4, human IL2Rα Fc fusion protein; assay: ELISA, Fc-tagged receptor coated, anti-HisTag-HRP
Protocol: as §1

human IL2Rβ [8] = biological target: T1, human IL2Rβ; assay: SPR, IL2Rβ captured on Protein A chip
Protocol: Kinetic analysis of the receptor binding activities of IL2Rβ agonist with IL2Rα reduced activity mutations have been assessed by SPR technology with Biacore T200. The assay was run with Biacore T200 control software version 2.0. For each cycle, 1 ug/mL of human IL2Rβ was captured for 60 seconds at flow rate of 10 ul/min on flow cell 2 in 1×HBSP buffer on Protein A sensor chip. 100 nM of HIS and Flag tag purified each IL2 mutant was 2 fold serial diluted and injected onto both reference flow cell 1 and IL2Rβ captured flow cell 2 for 150 seconds at flow rate of 30 ul/mins followed by wash for 300 seconds. The flow cells were then regenerated with Glycine pH2 for 60 seconds at flow rate of 30 ul/mins. The assay was set up with 8 serial diluted concentration points in 96 well format. The kinetics data was analyzed with Biacore T200 evaluation software 3.0. The specific binding response unit was derived from subtraction of binding to reference flow cell 1 from target flow cell 2.

human IL2Rα [9] = biological target: T5, human IL2Rα (human, UniProt P01589 22-213, limits assumed); assay: SPR (Biacore T200), human IL2Rα, IL2 mutant in two-fold dilutions from 100 nM (Example 13)
T5 construct: also called IL2α; CD25
T5 sequence (looked up): T4 sequence (looked up)

[10] = biological target: T4, human IL2Rα Fc fusion protein; assay: ELISA, single point, Fc-tagged human IL2Rα coated, anti-His-HRP; concentration not printed (Example 14)
Protocol: as §1

human IL2Rβ [11] = biological target: T1, human IL2Rβ; assay: SPR, multi-concentration
human IL2Rα [12] = biological target: T5, human IL2Rα; assay: SPR (Biacore T200), human IL2Rα, one trace per clone drawn, concentrations not printed (Example 13)
human IL2Rα [13] = biological target: T5, human IL2Rα; assay: SPR (Biacore T200), human IL2Rα, IL2 mutant in two-fold dilutions from 100 nM (Example 13); remark: listed apart in the source
human IL2Rβ [14] = biological target: T1, human IL2Rβ; assay: SPR, IL2Rβ captured on Protein A chip; remark: listed apart in the source
Protocol: as §3

human IL2Rα [15] = biological target: T5, human IL2Rα; assay: SPR (Biacore T200), human IL2Rα, IL2 mutant in two-fold dilutions from 100 nM (Example 13); remark: listed apart in the source

B1: EP349 (ligand)
chain: APTSSSTKKTQLQLEHLLLDLQMILNGINNYKNPKLTRMLTAKFYMPKKATELKHLQCLEEELKPLEEVLNLAQSKNFHLTARDAIDNINVIVQELKGSETTFMCEYADETATIVEFLNRWITFSQSIISTLTGSHHHHHH
B1 gave a Kd (human IL2Rβ [1]) of 2.79 nM and an EC50 [2] of 948 nM.

B2: EP345 (ligand)
chain: B1 chain with R38V, A42F, Y45S
In the case of B2, the Kd (human IL2Rβ [1]) is reported as 12.5 nM and the EC50 [2] is reported as 152 nM.

B3: EP214/EP215 (Fc fusion)
chain: APTSSSTKKTQLQLEHLLLDLQMILNGINNYKNPKLTEMLTFKFYMPKKATELKHLQCLEEELKPLEEVLNLAQSKNFHLTARDAVDNMRVIIQELKGSETTFMCEYADETATIVEFLNRWITFSQSIISTLTESKYGPPCPPCPAPEFEGAPSVFLFPPKPKDTLMISRTPEVTCVVVDVSQEDPEVQFNWYVDGVEVHNAKTKPREEQFQSTYRVVSVLTVLHQDWLNGKEYKCKVSNKGLPSSIEKTISKAKGQPREPQVYTLPPCQEEMTKNQVSLWCLVKGFYPSDIAVEWESNGQPENNYKTTPPVLDSDGSFFLYSALTVDKSRWQEGNVFSCSVMHEALHNHYTQKSLSLSLGK
Fc: ESKYGPPCPPCPAPEFEGAPSVFLFPPKPKDTLMISRTPEVTCVVVDVSQEDPEVQFNWYVDGVEVHNAKTKPREEQFQSTYRVVSVLTVLHQDWLNGKEYKCKVSNKGLPSSIEKTISKAKGQPREPQVCTLPPSQEEMTKNQVSLSCAVKGFYPSDIAVEWESNGQPENNYKTTPPVLDSDGSFKLVSRLTVDKSRWQEGNVFSCSVMHEALHNHYTQKSLSLSLGK
In the case of B3, the Kd [3] is reported as 5.79 nM, the koff [3] is reported as 0.00883 s⁻¹ and the kon [3] is reported as 1.53e+06 M⁻¹ s⁻¹.

B4: EP252 (ligand)
chain: APTSSSTKKTQLQLEHLLLDLQMILNGINNYKNPKLTRMLTFKFYMPKKATELKHLQCLEEELKPLEEVLNLAQSKNFHLTPRDAIDNIRVIVQELKGSETTFMCEYADETATIVEFLNRWITFCQSIISTLT
notes: not shown: His and Flag tags
Binder B4 has an EC50 [4] of 13 nM, an EC50 [5] of 2.2 nM and a Kd (human IL2Rβ [6]) of 9.11 nM. The EC50 [7] was 13.8 nM and the EC50 [2] was 24.5 nM.

B5: EP401 (ligand)
chain: B4 chain with K35S, F42G, P82A, I86V, I89M, V93I
notes: not shown: His and Flag tags
B5 was tested, and the Kd (human IL2Rβ [8]) was 0.855 nM, the koff (human IL2Rβ [8]) was 0.00616 s⁻¹ and the kon (human IL2Rβ [8]) was 7.21e+06 M⁻¹ s⁻¹. B5: no binding (tested: 100 nM) (human IL2Rα [9]).

B6: EP339 (ligand)
chain: B4 chain with K35L, R38D, F42R
notes: not shown: His and Flag tags
For B6, the binding result [10] was “no binding (tested: not printed)”, the Kd (human IL2Rβ [11]) was 35.9 nM and the binding result (human IL2Rα [12]) was “no binding (tested: not printed)”. It also gave an EC50 [2] of 96.3 nM.

B7: EP402 (ligand)
chain: APTSSSTKKTQLQLEHLLLDLQMILNGINNYKNPSLTRMLTGKFYMPKKATELKHLQCLEEELKPLEEVLNLAQSKNFHLGVTDSISNAIVLARELKGSETTFMCEYADETATIVEFLNRWITFCQSIISTLT
notes: not shown: His and Flag tags
B7 showed a Kd (human IL2Rβ [8]) of 0.108 nM, a koff (human IL2Rβ [8]) of 0.000397 s⁻¹ and a kon (human IL2Rβ [8]) of 3.68e+06 M⁻¹ s⁻¹. B7: no binding (tested: 100 nM) (human IL2Rα [13]).

B8: EP258 (ligand)
chain: B4 chain with P82A, D87S, R90N, V93I
notes: not shown: His and Flag tags
B8 gave an EC50 [4] of 2.5 nM, an EC50 [5] of 6.5 nM and a Kd (human IL2Rβ [14]) of 8.81 nM. For the same binder, the koff (human IL2Rβ [14]) was 0.0301 s⁻¹, the kon (human IL2Rβ [14]) was 3.42e+06 M⁻¹ s⁻¹ and the EC50 [7] was 9.1 nM. It also gave an EC50 [2] of 119 nM.

B9: EP340 (ligand)
chain: B4 chain with K35L, R38D, F42R, V93I, Q94L
notes: not shown: His and Flag tags
For B9, the binding result [10] was “no binding (tested: not printed)”, the binding result (human IL2Rα [12]) was “no binding (tested: not printed)” and the EC50 [2] was 185 nM.

B10: EP338 (ligand)
chain: B4 chain with K35L, R38D, F42R, P82A, D87S, R90N, V93I
notes: not shown: His and Flag tags
With B10 the binding result [10] was “no binding (tested: not printed)”, the Kd (human IL2Rβ [11]) was 38.3 nM and the binding result (human IL2Rα [12]) was “no binding (tested: not printed)”. It also gave an EC50 [2] of 105 nM.

B11: EP253 (ligand)
chain: B4 chain with V93I, Q94L
notes: not shown: His and Flag tags
B11 showed an EC50 [4] of 48.5 nM, an EC50 [5] of 4.8 nM and a Kd (human IL2Rβ [6]) of 29.5 nM. For the same binder, the EC50 [7] was 8.9 nM and the EC50 [2] was 52.8 nM.

B12: EP407 (ligand)
chain: B4 chain with R38D, Y45S, P82A, I86V, I89M, V93I
notes: not shown: His and Flag tags
With B12 the binding result (human IL2Rα [15]) was “no binding (tested: 100 nM)”, the Kd (human IL2Rβ [8]) was 0.611 nM and the koff (human IL2Rβ [8]) was 0.00509 s⁻¹. For the same binder, the kon (human IL2Rβ [8]) was 8.34e+06 M⁻¹ s⁻¹.
